Data from publication PMC4071823, “Gamma-secretase subunits associate in intracellular membrane compartments in Arabidopsis thaliana” (Journal of Experimental Botany, 2014).

T1: AtPEN-2–RFP (Arabidopsis thaliana, UniProt Q9FY84 1-146)
T1 construct: Arabidopsis thaliana PEN-2 (AtPEN-2, At5g09310); FLIM-FRET acceptor; also called presenilin enhancer 2; source: A. thaliana leaf mesophyll protoplasts, transiently transfected (pSITE vector), in living cells; not shown: mRFP, C-terminal, kept
T1 sequence (looked up): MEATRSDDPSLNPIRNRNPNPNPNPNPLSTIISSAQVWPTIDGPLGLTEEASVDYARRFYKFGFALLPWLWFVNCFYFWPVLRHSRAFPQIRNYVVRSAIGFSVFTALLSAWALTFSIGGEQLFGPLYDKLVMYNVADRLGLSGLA

T2: AtNCT–RFP (Arabidopsis thaliana, UniProt Q8GUM5 29-676)
T2 construct: Arabidopsis thaliana nicastrin (AtNCT, At3g52640); FLIM-FRET acceptor; also called nicastrin; source: A. thaliana leaf mesophyll protoplasts, transiently transfected (pSITE vector), in living cells; not shown: mRFP, C-terminal, kept
T2 sequence (looked up): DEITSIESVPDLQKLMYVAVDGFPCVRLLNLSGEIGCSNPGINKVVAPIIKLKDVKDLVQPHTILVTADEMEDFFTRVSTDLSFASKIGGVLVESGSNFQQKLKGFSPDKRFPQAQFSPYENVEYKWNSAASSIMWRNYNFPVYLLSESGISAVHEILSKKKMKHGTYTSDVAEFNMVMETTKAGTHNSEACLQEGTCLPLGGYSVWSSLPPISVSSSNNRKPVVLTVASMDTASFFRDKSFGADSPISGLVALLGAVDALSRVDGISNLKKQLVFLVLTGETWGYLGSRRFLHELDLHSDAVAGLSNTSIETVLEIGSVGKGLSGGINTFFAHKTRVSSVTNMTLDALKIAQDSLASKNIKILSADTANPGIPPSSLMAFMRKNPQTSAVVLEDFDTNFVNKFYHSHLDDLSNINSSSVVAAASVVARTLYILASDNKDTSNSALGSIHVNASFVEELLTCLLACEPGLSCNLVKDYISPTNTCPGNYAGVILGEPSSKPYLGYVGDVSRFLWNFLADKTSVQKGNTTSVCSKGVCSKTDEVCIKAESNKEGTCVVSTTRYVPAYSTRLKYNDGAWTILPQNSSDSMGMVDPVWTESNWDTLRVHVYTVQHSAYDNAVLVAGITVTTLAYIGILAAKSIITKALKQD


Key:
Test in all cases: FRET or BRET; FLIM-FRET in living A. thaliana leaf mesophyll protoplasts that co-express the two fusions; eGFP donor, mRFP acceptor; E=1−τDA/τD×100%; FRET efficiency above the threshold of 5% (free eGFP with free mRFP) taken as putative positive interaction
Details in all cases: partners not purified
[1] = target: T1, AtPEN-2–RFP
[2] = target: T3, AtAPH-1–RFP (Arabidopsis thaliana, UniProt Q8L9G7 1-250)
T3 construct: Arabidopsis thaliana APH-1 (AtAPH-1, At2g31440); FLIM-FRET acceptor; also called anterior pharynx-defective 1; source: A. thaliana leaf mesophyll protoplasts, transiently transfected (pSITE vector), in living cells; not shown: mRFP, C-terminal, kept

[3] = target: T2, AtNCT–RFP

T3 sequence (Q8L9G7 whole entry): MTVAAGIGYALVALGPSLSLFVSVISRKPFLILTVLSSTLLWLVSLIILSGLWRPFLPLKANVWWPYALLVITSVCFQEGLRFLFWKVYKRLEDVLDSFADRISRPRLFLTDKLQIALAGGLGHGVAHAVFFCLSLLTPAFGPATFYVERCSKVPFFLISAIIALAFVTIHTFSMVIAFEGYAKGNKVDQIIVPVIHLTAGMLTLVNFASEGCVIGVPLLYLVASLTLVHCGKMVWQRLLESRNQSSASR

| Binder | FRET efficiency, E_(FRET) [1] | FRET efficiency, E_(FRET) [2] | FRET efficiency, E_(FRET) [3] |
| --- | --- | --- | --- |
| AtPS2–GFP (natural protein, Arabidopsis thaliana, UniProt Q9SIK7 1-397, looked up, Arabidopsis thaliana presenilin 2 (AtPS2, At2g29900); cDNA made from leaf RNA; FLIM-FRET donor; also called presenilin 2; AtAtPS2–GFP; source: A. thaliana leaf mesophyll protoplasts, transiently transfected (pSITE vector), in living cells; not shown: eGFP, C-terminal, kept) MDRNQRPRSILDSLGEELIAILTPVSICMFTVVLLVCILNSDPSSSSASFSSIATAAYSESDSDSSWDKFVGALLNSVVFVAAITVATFVLVLLFYLRCVKFLKFYMGFSAFIVLGNLGGEILVLLIDRFRFPIDSITFLILLFNFSVVGVFAVFMSKFSILITQGYLVWIGVLVAYFFTLLPEWTTWVLLVALALYDIAAVLLPVGPLRLLVEMAISRDEDIPALVYEARPVIRNDSRSVQRRVWREQRSSQNNANRNEVRVVESAEVEEEHVGSSERAEISVPLIDRRPEQAENSETFLEGIGLGSSGAIKLGLGDFIFYSVLVGRAAMYDLMTVYACYLAIIAGLGITLMLLSVYQKALPALPVSIMLGVVFYFLARLLLEVFVVQCSSNLVMF | 32% | 20% | – |
| AtPEN-2–GFP (natural protein, Arabidopsis thaliana, UniProt Q9FY84 1-146, looked up, Arabidopsis thaliana PEN-2 (AtPEN-2, At5g09310); FLIM-FRET donor; also called presenilin enhancer 2; source: A. thaliana leaf mesophyll protoplasts, transiently transfected (pSITE vector), in living cells; not shown: eGFP, C-terminal, kept) MEATRSDDPSLNPIRNRNPNPNPNPNPLSTIISSAQVWPTIDGPLGLTEEASVDYARRFYKFGFALLPWLWFVNCFYFWPVLRHSRAFPQIRNYVVRSAIGFSVFTALLSAWALTFSIGGEQLFGPLYDKLVMYNVADRLGLSGLA | – | – | 11% |

Further lines, results first:

| FRET efficiency, E_(FRET) [1] | FRET efficiency, E_(FRET) [2] | FRET efficiency, E_(FRET) [3] | Binder |
| --- | --- | --- | --- |
| – | 14% | – | AtNCT–GFP (natural protein, Arabidopsis thaliana, UniProt Q8GUM5 29-676, looked up, Arabidopsis thaliana nicastrin (AtNCT, At3g52640); FLIM-FRET donor; also called nicastrin; source: A. thaliana leaf mesophyll protoplasts, transiently transfected (pSITE vector), in living cells; not shown: eGFP, C-terminal, kept) DEITSIESVPDLQKLMYVAVDGFPCVRLLNLSGEIGCSNPGINKVVAPIIKLKDVKDLVQPHTILVTADEMEDFFTRVSTDLSFASKIGGVLVESGSNFQQKLKGFSPDKRFPQAQFSPYENVEYKWNSAASSIMWRNYNFPVYLLSESGISAVHEILSKKKMKHGTYTSDVAEFNMVMETTKAGTHNSEACLQEGTCLPLGGYSVWSSLPPISVSSSNNRKPVVLTVASMDTASFFRDKSFGADSPISGLVALLGAVDALSRVDGISNLKKQLVFLVLTGETWGYLGSRRFLHELDLHSDAVAGLSNTSIETVLEIGSVGKGLSGGINTFFAHKTRVSSVTNMTLDALKIAQDSLASKNIKILSADTANPGIPPSSLMAFMRKNPQTSAVVLEDFDTNFVNKFYHSHLDDLSNINSSSVVAAASVVARTLYILASDNKDTSNSALGSIHVNASFVEELLTCLLACEPGLSCNLVKDYISPTNTCPGNYAGVILGEPSSKPYLGYVGDVSRFLWNFLADKTSVQKGNTTSVCSKGVCSKTDEVCIKAESNKEGTCVVSTTRYVPAYSTRLKYNDGAWTILPQNSSDSMGMVDPVWTESNWDTLRVHVYTVQHSAYDNAVLVAGITVTTLAYIGILAAKSIITKALKQD |
| 24% | 19% | 19% | AtPS1–GFP (natural protein, Arabidopsis thaliana, UniProt O64668 1-453, looked up, Arabidopsis thaliana presenilin 1 (AtPS1, At1g08700); FLIM-FRET donor; also called presenilin 1; source: A. thaliana leaf mesophyll protoplasts, transiently transfected (pSITE vector), in living cells; not shown: eGFP, C-terminal, kept) MESSILDSLGVEIIGVMAPVSICMFLVVLLTYSLSVTSDPQIRSAANLIYIENPSDSTTVKLEGSLANAIVFVVLIAAVTFILVLLFYYNFTNFLKHYMRFSAFFVLGTMGGAIFLSIIQHFSIPVDSITCFILLFNFTILGTLSVFAGGIPIVLRQCYMVVMGIVVAAWFTKLPEWTTWFILVALALYDLVAVLAPGGPLKLLVELASSRDEELPAMVYEARPTVSSGNQRRNRGSSLRALVGGGGVSDSGSVELQAVRNHDVNQLGRENSHNMDYNAIAVRDIDNVDDGIGNGSRGGLERSPLVGSPSASEHSTSVGTRGNMEDRESVMDEEMSPLVELMGWGDNREEARGLEESDNVVDISNRGIKLGLGDFIFYSVLVGRAAMYDLMTVYACYLAIISGLGCTLILLSVYNRALPALPISIMLGVVFYFLTRLLMEPFVVGVTTNLMMF |
